Literature values in PMC9636575.
pKd: −log10 of the molar value.

Biological target: MqsA 1-76 (Escherichia coli) (UniProt Q46864)
Sequence (Q46864 1-76): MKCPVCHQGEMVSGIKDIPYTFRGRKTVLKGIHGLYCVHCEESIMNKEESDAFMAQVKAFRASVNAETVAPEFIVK

Sequence of MqsR (Q46865 whole entry): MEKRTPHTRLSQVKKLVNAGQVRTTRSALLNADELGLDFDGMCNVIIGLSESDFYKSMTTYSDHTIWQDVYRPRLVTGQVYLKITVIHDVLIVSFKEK

For MqsR (from UniProt Q46865), the pKd is listed as over 9.00.
